# Test: soluble on expression in E. coli; label from the status in PepcDB or PDB records
row,Sequence,soluble on expression in E. coli
1,MDINKLKLTPDSSIKEALKIVGQERVRLGIIVDKKDKFLGVISDSNIRKALISGKTLKDSIKDIYTKNPITIKENTSKEQLLKISAKTDIYDFPVLDEKGQILSIKSISSLLKANPNSIIIMAGGLGSRLKELTKDTPKPMLKVGKKPILESIIQRLKNQNFENFIFCVNYKKQIIEDYFQKGQKFGVKISYIKERKKLGTAGALSLIKQEFKESFIVMNADILTELDFNALLKAHKKSKALMSVCVREFEQQIPYGVITQKQGFIENIEEKPTQKFLVSAGIYVLENEILNLIAKNEYLDMPELIKLVLQKGKVNTYIINDYWIDIGRPDEFLKANEDFKLEHHHHHH,soluble
2,MRRRQRRQSSNIFHMLTKNQIVELREAFNFMDVNSDTFVDRGDLENFLASIGSPFSESEIDEMMAEGGDSMTYMLFLTMIGERLSCTDSEKSIFNALKEFDDNGDGTIDEKVLREWLTEKGDRMADEDVNLLLRDCVENGRIDCRSLTTKMKYGEIINE,not soluble
3,MGSDKIHHHHHHMKIQEVKRILTRWQPSSFSLYREVFTQYGGSINMHPDIVDYFMKRYNWHFKFFHYKEDDKIKGAYFICNDQNIGILTRRTFPLSSDEILIPMAPDLRCFLPDRTNRLSALHQPQIRNAIWKLARKKQNCLVKETFSSKFEKTRRNEYQRFLKKGGSVKSVADCSSDELTHIFIELFRSRFGNTSSCYPADNLANFFSQLHHLLFGHILYIEGIPCAFDIVLKSESQMNIYFDVSNGAIKNECRPLSPGSILMWLNISRARHYCQERQKKLLFSIGILKPEWEYKRMWSTPYFTGKSIC,not soluble
4,MNTETSTQSAPSDTYDTSIYYNSSPRVTANDITTLTSFAAPAPQVLDYANTQYDIYRNQPAYYLPSYAPTAPTTFYSDFANFNVTRSQDFASVPAVANSSDVKPIIIKQEKSTPNATELIIQSRVDSQHEDTTTSTAGGAGVGGPRRTKFVLSVDRRKAATMRERRRLRKVNEAFEVVKQRTCPNPNQRLPKVEILRSAIDYINNLERMLQQAGKMTKIMEQNQHLQMTQQINGAPPHDYVTSSHFASSSYNPENMFDDDDLTDSDDDRDHHKLGNAVDLRRRNSLDRLSRIVASIPNEEAMTDEQLLQPANDVIDGEKKLEML,not soluble
5,MSMATVDPWMQNLPQITNQDFFHSSGIECWNRQFPDHRVVEENGPIKTKDALMILYFITVRNIRKNRNTITRIRDALKSPVSIFRRSPKLSLQEDVLSWQKSPESLAASEYGSKLFVQFLKQQTSADDVDFWLACAKHRWTEMTRDGYEYAAYMIYNTYVFWTCERKIDLLDKFCFVDDDGGTPRDVFITAQAYVGTKFPKDSHKKFLQDPIYLNFLHSVSSAANQQKK,not soluble
6,MGSDKIHHHHHHMNHLNDKVNEIKDNFYGLIGHAYLEKYITKPIVDEDKLRFLYTMLAEKLPKKDTKLFTLSALLVDAALEIHEAVSLHNIQTDPIKKNRQLNVLAGDYYSSLYYYLLADSRHLPIIQVFSHSIQEINEYKMKLYDGKNIDFDEVKNNVDKVDTFLLQNLAEHFQLTTWKKAISVFFHLKRLVHEREAWINGKATPLMKAIVTELFGSNRPVDELKKDDQLQVLELWEEKVEEGKDHLLEHVKALLPKFERFFVDHLNDLFGPDYIHEKVAEEG,not soluble
7,MSELLQYSRIKYECTCGKFRTLPDLVFCRYCFKIKCDDCSLGEVDNIFCPRCLEPSSVPEARLKKHKCASCNDCPKCANVLSARTENDNVYLVCQYCRWSSREANQEDQENTKSWPTKENPLVNQLGEVTAYMKRLELIENAPKDLKKGKSGKAWTAFHLKDKFGFQQMVDKRKKALAPEMNPVDAHAPTEAPTLEDEIKERTDDLRTLDQIIMQPLINISEPLLPVQVPLAGRVQVRCDECERTLIKRDFGVTTFKFKISSFARQFVPDIRMSRPVDDLKVGETSHVFLSITNLSSSAMDLTIAPQSGNGFIQCSSDPIQLLLPSSRASDTAAPGVHADQSDVIVFRQHNRVGLRLDVIPTEMDLSSPCLNLLITYCQDGSFRLSSASDKILKPEETCPDPILSANLKVDLR,not soluble
8,MGSDKIHHHHHHMTVEYTASDLATYQNEVNEQIAKNKAHLESLTHPGSKVTFPIDQDISATPQNPNLKVFFFDIDNCLYKSSTRIHDLMQQSILRFFQTHLKLSPEDAHVLNNSYYKEYGLAIRGLVMFHKVNALEYNRLVDDSLPLQDILKPDIPLRNMLLRLRQSGKIDKLWLFTNAYKNHAIRCLRLLGIADLFDGLTYCDYSRTDTLVCKPHVKAFEKAMKESGLARYENAYFIDDSGKNIETGIKLGMKTCIHLVENEVNEILGQTPEGAIVISDILELPHVVSDLF,not soluble
9,DLAKELFTHKGSGTLIRRGERVIRATTWKDLDLPRLQHLIQSSFRRTLIPHYFETTPLLRAYVSENYRAAVILTKLGNVPYLDKFAVLDDAQGEGLGRAVWSIMREETPQLFWRSRHNNQANAFYYAESDGYYKQDHWKIFWNGLHHFQQIQQCVAHCTQH,not soluble
10,MSLKLTSYTKTMQGRRKKQEDRYLVITDLTKYIDSNDYKTLYFYKKNPLYFYSIFDGHRGIKACEYCMSHIIKNIIYYFYNQGSAGAGTDEQIMEYIKLAFLKTDEQFLKVSKFPNHGCTIISLIIFRNKMFVANLGDCRAIGVVNISNTLKTEVLSNDHKPNDPKEKERIKKMGGDVICLQNVYRVKANARKNNKDKPSLLERLSMKEEVYLAVSRAIGDKDFKFNNVISATPDVICKEDNLYYSAHEVNYHYVVMACDGVWDTMSNKDIVKILQTYNNDPDKACSEIIKTAYAYGSQVHEGHHHHHH,not soluble
11,MGCAQSTPVDQPARQQPQATQQKSVEPAVVKKPVEPARVEPKVEVPSTKPSEVPHVEKAQSINRGQPGDGSGPLQQPSPAMPGAKQGGTKERRAAAGSEAVRDQIRKLAVGGPQAKEEKEKIYEVSDSEDEELEDDPSERTTLSGDWYKPQEVTDAILEALKRNFVFKGIPQNHLVEVVGRMYGISFKSGAVVLQQGALPKQDDCMYYLQQGEAEVVISGGADASKNHGEERKVDGHTVRIPQKPGWLFGDVALLFHSPRTASVVAKTNITVWAMDRRTFLKFVMKHAQGARALRFLRKLPLLKGLSDNDLIRAASRMPQRMYEDGQPLIRIGERGDELFLIRYGKVRVFRPDGNGGRVEVAVLGRGQFVGERAVINDKLRSADCVAQGQVQVVVLKKREFMDLDNPLLAWMLDYDAVSAVIRSLPQFKGLKQEQMENILDRFDAREELMQGDTILNQGDMLEKLYVVKIGEIALFRNDERVEDPNFVHEIAGFSYFGETAITQTGKCPYTIRVASESLHLLSLPKRQVDSFMGRDTGLKNEEAVVAALKKSKFLANMTDPEFKELLKACEQTDYNPGEVIAVANSSVTNKIFLVKSGEVMVVAADLALPDTGEVDVRKLTGSERQRLLAGSIFNDKALNSPETASLEASLVAGTPCGIITFTTSDVERVMGGRAMSRSRNAMPGAAAAVEERKFPRVKFTELEFHRIIGTGQFGLVRVVRNIKTNEVYALKVMHKAPIVESKQIEHVINERKILEEACTHPFCVRLCGAYQDKASLYLLQEWVPGGELFHHLDVEGAFDEPTAMFYAANVLLALEFLHAKGIVYRDLKPENLLLDTQGYIKMADFGFAKYIGGDKTYTICGTPDYQAPEVIMRRGTTKAADYWALGVLIFEMLVGDPPFKSLTGDPWDTFRRTLSGRFYVPNFISDQAADLIFKLLQVNPDKRLGSDKRLGAEEIKRHRWFSRIDWRALEQKKLPSPFRPRVRNPLDTSNFDNFDNVDLEPPPVPADRAEKHSQQWELWDWIDDSK,not soluble
12,MIETTAALAEACTELAKSEFITIDTEFLRETTFWPELCLVQMASPTLEVLVDPLAKGIDLTPMFELMANPNVVKVFHAARQDIEIIYHLGGLIPHPIFDTQVAAMVCGFGDSISYDQLVQKIKNVQIDKSSRFTDWSRRPLTEKQLDYALADVTHLRDVYLSLKAQLEREGRSLWLTEEMNILESRDTYDMHPDDAWLRLKSRLRKPTELAILKFVAAWREREARSRNVPRSRVLKDDGIFEIAQQQPKDAEALSRLRTIPKGWERSASGTAIIETVNAALALPKEEMPKAPRHSHAPEGSGAAVELLKVLLKLTADKHGVAAKVIANSDDLDKIASEGENATVAALTGWRRELFGDVALKLINGEVALRFAGKKVEAVEVEAAASES,not soluble
13,MGSDKIHHHHHHMPQYTVYLAPAGYEQDLIDELGPRVIDVRGRLVRASGGPRHAAWAQNIWLDPVEMRIGSIGDAATRLKGIQRNWFLHAVDHHRRAALIAGKLPHVSARPHVFGTPAPTAPLGSWTLWEHDLVIASARCSSPFPDGEVHFVENRIDPPTRAYLKLWETFTRLGVQPAPGELCLDMGSCPGGWTWVLAGLGARVFSVDKADIAPHIAAMPNVNFCTGSAFGLDPQHAGAVDWFFSDVICYPDRLLATVQRWLERGQCRNFVCTLKFQATTDHATAAAFAAIPGSQLFHLAHNKHELTWVLLRDKA,not soluble
14,MEEPVLDFQFVHRKIHTGQIAAFDIIARLVPIKNIRGNDFDDRPAAAVFGMHNLQTRPVARHFEGGADFTQLIVLTLGQPESAYVAVRLKIVRGDISRGGVGKLTGKQSHT,not soluble
15,MSDHLGSSHDEGELSDESHKKSQRASSSDEPNPAKSNKGLESKMRESILSRLSKRKNSESDDDTTEQRFSIQPKNAQKAKEDRYRDKERDKKREKDKRDDRRDVRGPDARQKDRDFKGRQERSGRDQKVHEHRHHHHHRKHETDGHRTNRSNRDRSSERDSEKHKRHIDRHKKSSTTSPDNDKSPHKKSKHTDVPADAKLFDRILDPNYKKKDDDVLVIEDVEMSPIEILEEKEEKEIVEFTIDSPAGPKKYSKFESDPESDHDDTKPKSPGKAEDDDDVIEVLDDALHSDDDADSDEDKYLKTPEDREWEEMTETEQRLHKEAMKKRASMKQKTLIAQLPVFYPGLMGCRNIDEYECVNRVDEGTFGVVYRGKDKRTDEIVALKRLKMEKEKEGFPITALREINMLLKAGNHPNIVNVKEILLGSNMDKIYMAMEFVEHDMKSLLDTMSRRNKRFSIGEQKTLLQQLLSGIEHMHKLWILHRDLKTSNLLMSHKGILKIADFGLAREYGDPLKKFTSIVVTLWYRSPELLLGTRLYSTPVDMWSVGCIMAEFILLKPLFPGRGELEQIKKIFMEMGTPTESIWPGVTELDGWKALTFEKYPYNQLRKRFLAGRLLNDTGFKLLNGLLTLDPKNRFSATQALDHEWFTEEPYPVPPEEFPTFPAKSEQNKAPPPAKQKQQENRISHVDPETAKLLKQFEVRPEQVKPGGFSLKFDPTRF,not soluble
16,MGSFPNFGAFILRAQEKDGRTCINGLPVASPAKQMLGRFPYLQSLQHDNLSVYLHFSETVIARDLVIVVMEHYTMNLEDILKTGNLKDESLNNNFYSEISSALDYLHTRNIVHGFLHLNSIYITDRKNQKLSVKLSGYGLPFLTNYGKDTASSIKFGAFLAPERILNDEDSLFAATYQSDVWELGFIILQIYLGISLEAEVTETEYLEILNKYYTDDQEKLSTVMEDLIQLLADKKRLPYHKKCEWLEAIIRKCLQMCCSKRCSITEVAAEIEININGVKNNNNKYEYKVKTVEEMRAAVRKEVADNNDGFEKLSVENSFYLWKTCGSTPEIILLKKGIIQNHAPISSYPTVRFDDFLRLDSGVDSQSTFEYGVFDLPSKKTLTRKETGQRVSARMFHKIGILEDKDLLNGNILYETASNMLTVDHLLNASAVFGISSIISRLTNIGVIPTQRADVWCTLLDINETKWRDYLNLDVLASHSSDRQLEVDIPRCHQYDSYMTTPAIQESLRKVLKGWQIVTESQHFVYWQGCDSLATPFLLANMSKPHVAFACFKEFTYRYCHKFYLKDNSEVIKEYLGIFYHLVAYTDPVLYKHLKINGFDAELFAIPWFLTCFAHELPLSKLVLLWDETMMHGNAFPLMIALAMLNRLRDKLLAVNFNEMIIIIHDQPDLSIDEIIKNSRGYEKLIPPSCTFRAHASPWKGTSLSLQQLSSIHCPRMSSEELIWRIERKMVYVLDTRQESEFQSERFSDSFNHPNNNHEADIDWLRFLPGIVCSELPKCFVYGKNDKEAAERLTEAYVMKGVPYICLLHDHFEAVRNRDSVVVKP,not soluble
